Data published in publication PMC3531522, “Nasal Colonisation by Staphylococcus aureus Depends upon Clumping Factor B Binding to the Squamous Epithelial Cell Envelope Protein Loricrin” (PLoS Pathogens, 2012).

B1: GST-murine K10_(454–570) (domain or fragment, UniProt P02535 454-570, looked up)
chain: EGSSSGGGGGRRGGSGGGSYGGSSGGGSYGGSSGGGGSYGGSSGGGGSYGGGSSGGGSHGGSSGGGYGGGSSSGGAGGHGGSSGGGYGGGSSSGGQGGSGGFKSSGGGDQSSKGPRY
notes: Cytokeratin 10 (K10), murine, residues 454-570 (C-terminal tail region); also called MK10; GST-MK10; source: DNA codon optimised for E. coli, in pGEX-4T; purified on GSTrap FF; not shown: GST, N-terminal, kept
B2: GST-Fgα_(316–367) (domain or fragment, UniProt P02671 335-386, looked up)
chain: NSGSSGTGSTGNQNPGSPRPGSTGTWNPGSSERGSAGHWTSESSVSGSTGQW
notes: Fibrinogen α-chain, residues 316-367, repeat domain 5 of the αC region; also called repeat domain 5 of the αC region of Fg
B3: GST-human loricrin_(1–315) (natural protein, UniProt P23490 1-312, looked up)
chain: MSYQKKQPTPQPPVDCVKTSGGGGGGGGSGGGGCGFFGGGGSGGGSSGSGCGYSGGGGYSGGGCGGGSSGGGGGGGIGGCGGGSGGSVKYSGGGGSSGGGSGCFSSGGGGSGCFSSGGGGSSGGGSGCFSSGGGGSSGGGSGCFSSGGGGFSGQAVQCQSYGGVSSGGSSGGGSGCFSSGGGGGSVCGYSGGGSGCGGGSSGGSGSGYVSSQQVTQTSCAPQPSYGGGSSGGGGSGGSGCFSSGGGGGSSGCGGGSSGIGSGCIISGGGSVCGGGSSGGGGGGSSVGGSGSGKGVPICHQTQQKQAPTWPSK
notes: Loricrin, human, full length, printed as residues 1-315 (S1 to K315); also called HLor; Hlor; source: DNA codon optimised for E. coli, in pGEX-4T; purified on GSTrap FF; not shown: GST, N-terminal, kept
B4: GST-human K10_(544–563) (peptide)
chain: GGSSGGGSSSGGGYGGGSSS
notes: Cytokeratin 10 (K10), human, residues 544-563 (C-terminal tail region); also called HK10; GST-HK10; source: DNA codon optimised for E. coli, in pGEX-4T; purified on GSTrap FF; not shown: GST, N-terminal, kept
B5: Recombinant ClfB N2N3 (rClfB_(201–542)) (domain or fragment)
chain: AEPVVNAADAKGTNVNDKVTASNFKLEKTTFDPNQSGNTFMAANFTVTDKVKSGDYFTAKLPDSLTGNGDVDYSNSNNTMPIADIKSTNGDVVAKATYDILTKTYTFVFTDYVNNKENINGQFSLPLFTDRAKAPKSGTYDANINIADEMFNNKITYNYSSPIAGIDKPNGANISSQIIGVDTASGQNTYKQTVFVNPKQRVLGNTWVYIKGYQDKIEESSGKVSATDTKLRIFEVNDTSKLSDSYYADPNDSNLKEVTDQFKNRIYYEHPNVASIKFGDITKTYVVLVEGHYDNTGKNLKTQVIQENVDPVTNRDYSIFGWNNENVVRYGGGSADGDSAVN
notes: Clumping factor B (ClfB) of S. aureus, amino acids 201-542 (subdomains N2 and N3 of the A domain), amplified from plasmid pCU1:clfB; also called ClfB N2N3_(201–542); ClfB N23_(201–542); not shown: His6, N-terminal, kept

Legend:
Assay in all cases: SPR; BIAcore X100; GST-tagged ligand captured on a CM5 chip coated with goat anti-GST IgG, GST on the reference cell; increasing concentrations of rClfB_(201–542) in PBS passed in succession without regeneration (single cycle); KD from response at equilibrium against concentration
[1] = biological target: GST-tagged human loricrin loop region 2v (human)
[2] = biological target: GST-tagged human loricrin loop region 1B (human)
[3] = biological target: GST-tagged human loricrin loop region 3 (human)
[4] = biological target: GST-tagged human loricrin loop region 2 (human)
[5] = biological target: GST-tagged human loricrin loop region 1A (human)
[6] = biological target: B5; conditions: both partners purified
[7] = biological target: B5; conditions: both partners purified; remark: listed apart in the source
[8] = biological target: T1, GST-murine loricrin_(1–480) (murine, UniProt P18165 1-486); conditions: both partners purified
T1 construct: Loricrin, murine, full length, printed as residues 1-480; The printed length (480) may differ from that of the UniProt entry; also called MLor; GST-MLor; source: DNA codon optimised for E. coli, in pGEX-4T; purified on GSTrap FF; not shown: GST, N-terminal, kept
T1 sequence (looked up): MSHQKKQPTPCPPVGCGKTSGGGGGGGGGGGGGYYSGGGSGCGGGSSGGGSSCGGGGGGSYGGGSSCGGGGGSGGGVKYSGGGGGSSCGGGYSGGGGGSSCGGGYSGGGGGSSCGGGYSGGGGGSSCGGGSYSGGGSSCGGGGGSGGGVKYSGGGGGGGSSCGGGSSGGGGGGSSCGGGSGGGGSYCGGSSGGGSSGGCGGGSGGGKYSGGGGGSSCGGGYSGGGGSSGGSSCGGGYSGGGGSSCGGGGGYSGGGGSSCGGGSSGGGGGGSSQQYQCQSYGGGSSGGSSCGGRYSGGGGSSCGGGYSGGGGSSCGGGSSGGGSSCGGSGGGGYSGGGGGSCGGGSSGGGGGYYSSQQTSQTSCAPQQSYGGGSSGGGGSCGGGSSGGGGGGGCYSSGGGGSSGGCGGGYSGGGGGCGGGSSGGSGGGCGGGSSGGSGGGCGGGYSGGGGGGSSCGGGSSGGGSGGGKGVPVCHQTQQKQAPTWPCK

Molecule: Recombinant ClfB N2N3 (rClfB_(201–542)) (from UniProt O86476 201-542) (domain or fragment)
- Kd [1]: 2.21 µM
- Kd [2]: 34.5 µM
- Kd [3]: 5.47 µM
- Kd [4]: 3.31 µM
- Kd [5]: 16.7 µM

Molecule: B1
- Kd [6]: 14.4 µM

Molecule: B2
- Kd [7]: 5.52 ± 1.5 µM
- Kd [6]: 5.25 µM

Molecule: B3
- Kd [6]: 4.33 µM

Molecule: B4
- Kd [6]: 7.89 µM

Molecule: B5
- Kd [8]: 15.7 µM
